Values of other authors, collected in PMC3394898.

Biological target: NTSR1 (Mus musculus) (UniProt O88319)
Chain of UniProt O88319 (O88319 whole entry): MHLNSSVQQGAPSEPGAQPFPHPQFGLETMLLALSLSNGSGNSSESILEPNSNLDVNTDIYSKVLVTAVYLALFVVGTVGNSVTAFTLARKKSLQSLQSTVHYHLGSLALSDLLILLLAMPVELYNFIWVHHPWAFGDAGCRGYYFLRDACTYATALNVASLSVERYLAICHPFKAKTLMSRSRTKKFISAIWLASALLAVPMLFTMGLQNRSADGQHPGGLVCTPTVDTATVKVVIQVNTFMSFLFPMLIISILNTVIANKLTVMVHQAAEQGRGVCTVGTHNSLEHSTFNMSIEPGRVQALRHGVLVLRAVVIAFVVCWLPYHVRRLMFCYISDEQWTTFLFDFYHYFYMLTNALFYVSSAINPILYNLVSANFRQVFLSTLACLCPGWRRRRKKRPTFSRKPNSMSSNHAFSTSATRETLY

For neurotensin (NTS) (from UniProt P30990), the Kd is listed as 5 nM.
